Results reported in US8357656B2, “Natriuretic peptide receptor-C agonists” (Mayo Foundation for Medical Education and Research, priority 2007, dated 2013).

Tests used:
[1] = biological target: T1, human NPR-C (Homo sapiens, UniProt P17342); assay: Binding to human NPR-C; details: FIG. 3
T1 sequence (P17342 27-541): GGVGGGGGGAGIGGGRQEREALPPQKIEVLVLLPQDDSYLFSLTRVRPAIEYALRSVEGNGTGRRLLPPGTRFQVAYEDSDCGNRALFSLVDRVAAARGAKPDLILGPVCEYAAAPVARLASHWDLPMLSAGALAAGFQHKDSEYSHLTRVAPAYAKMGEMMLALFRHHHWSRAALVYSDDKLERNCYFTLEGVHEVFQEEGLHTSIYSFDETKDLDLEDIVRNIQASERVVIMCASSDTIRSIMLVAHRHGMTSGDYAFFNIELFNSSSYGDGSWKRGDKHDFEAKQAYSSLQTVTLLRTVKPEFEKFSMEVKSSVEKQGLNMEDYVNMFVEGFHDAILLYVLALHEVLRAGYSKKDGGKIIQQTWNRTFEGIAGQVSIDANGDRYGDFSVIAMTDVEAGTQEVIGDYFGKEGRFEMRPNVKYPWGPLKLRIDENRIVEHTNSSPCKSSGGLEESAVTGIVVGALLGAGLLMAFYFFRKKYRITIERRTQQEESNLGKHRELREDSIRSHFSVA
Method: Human BNP and ASBNP.1 binding to human NPR-C was assessed using methods similar to those described elsewhere (Fan et al., Mol. Pharmacol., 67:174-83 (2005)).

[2] = biological target: T2, rat NPR-A (Rattus norvegicus, UniProt P18910); assay: cGMP production in HEK293 cells stably expressing rat NPR-A; type: cell-based; details: stimulated for 3 minutes, cGMP RIA (FIG. 1)
T2 construct: expressed in transfected cells; host or cells: HEK293 (293GCA cells)
T2 sequence (P18910 29-1057): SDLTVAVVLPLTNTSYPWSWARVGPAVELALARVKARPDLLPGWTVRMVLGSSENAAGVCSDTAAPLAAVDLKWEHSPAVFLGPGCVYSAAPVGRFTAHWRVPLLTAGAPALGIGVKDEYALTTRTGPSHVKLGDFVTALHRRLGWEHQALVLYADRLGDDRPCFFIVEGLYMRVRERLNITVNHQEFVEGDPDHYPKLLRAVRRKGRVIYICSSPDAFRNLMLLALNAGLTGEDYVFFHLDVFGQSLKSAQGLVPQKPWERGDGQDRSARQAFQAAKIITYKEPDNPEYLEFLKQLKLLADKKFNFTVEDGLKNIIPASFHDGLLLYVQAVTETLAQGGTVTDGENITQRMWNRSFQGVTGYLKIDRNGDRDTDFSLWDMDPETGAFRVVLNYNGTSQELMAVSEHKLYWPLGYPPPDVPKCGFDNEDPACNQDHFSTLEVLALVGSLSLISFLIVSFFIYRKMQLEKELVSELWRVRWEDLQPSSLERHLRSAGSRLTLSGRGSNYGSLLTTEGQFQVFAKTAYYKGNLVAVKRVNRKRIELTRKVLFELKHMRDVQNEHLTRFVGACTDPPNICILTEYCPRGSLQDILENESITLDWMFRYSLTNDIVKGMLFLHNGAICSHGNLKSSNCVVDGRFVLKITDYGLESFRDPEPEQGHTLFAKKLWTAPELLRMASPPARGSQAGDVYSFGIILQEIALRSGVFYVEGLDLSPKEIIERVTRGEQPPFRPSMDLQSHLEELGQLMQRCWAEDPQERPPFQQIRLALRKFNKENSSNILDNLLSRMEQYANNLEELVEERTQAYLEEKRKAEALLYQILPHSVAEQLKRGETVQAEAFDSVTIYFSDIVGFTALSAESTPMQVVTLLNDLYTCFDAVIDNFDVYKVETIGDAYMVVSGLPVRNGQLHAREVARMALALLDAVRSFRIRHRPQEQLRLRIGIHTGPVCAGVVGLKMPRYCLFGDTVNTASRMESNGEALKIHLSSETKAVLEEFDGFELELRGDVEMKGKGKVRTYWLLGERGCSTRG
Method: (§1) HEK293 cells stably expressing rat NPR-A or NPR-B were prepared using methods similar to those described elsewhere (Fan et al., Mol. Pharmacol., 67:174-83 (2005); and Bryan and Potter, J. Biol. Chem., 277:16041-16047 (2002)). The cells were maintained in Dulbecco's modified Eagle's medium (DMEM) supplemented with 10% FBS, 100 units/mL penicillin, 100 μg/mL streptomycin, and 200 μg/mL G418. The cells were plated in 48-well plates and grown to 90% confluency. On the day of the assay, the cells were incubated in serum-free medium for 4 hours. The cells were pretreated for 10 minutes at 37° C. in DMEM containing 25 mM HEPES, pH 7.4 and 0.5 mM 1-methyl-3-isobutylxanthine by aspirating the starvation medium. After pretreatment, the medium was replaced with the same medium containing the indicated concentrations of natriuretic peptides. The cells were stimulated for 3 minutes with CNP, rat BNP, human BNP, ASBNP, or ASBNP.1. The reaction was stopped by aspiration of the medium and addition of 200 μL ice-cold 80% ethanol. Cyclic GMP concentrations were estimated from an aliquot of the ethanol extract using a Perkin Elmer cGMP RIA kit without acetylation as described elsewhere (Bryan and Potter, J. Biol. Chem., 277:16041-16047 (2002); and Abbey and Potter, J. Biol. Chem., 277:42423-30 (2002)).

[3] = biological target: T3, rat NPR-B (Rattus norvegicus, UniProt P16067); assay: cGMP production in HEK293 cells stably expressing rat NPR-B; type: cell-based; details: stimulated for 3 minutes, cGMP RIA (FIG. 2)
T3 construct: expressed in transfected cells; host or cells: HEK293 (293GCB cells)
T3 sequence (P16067 17-1047): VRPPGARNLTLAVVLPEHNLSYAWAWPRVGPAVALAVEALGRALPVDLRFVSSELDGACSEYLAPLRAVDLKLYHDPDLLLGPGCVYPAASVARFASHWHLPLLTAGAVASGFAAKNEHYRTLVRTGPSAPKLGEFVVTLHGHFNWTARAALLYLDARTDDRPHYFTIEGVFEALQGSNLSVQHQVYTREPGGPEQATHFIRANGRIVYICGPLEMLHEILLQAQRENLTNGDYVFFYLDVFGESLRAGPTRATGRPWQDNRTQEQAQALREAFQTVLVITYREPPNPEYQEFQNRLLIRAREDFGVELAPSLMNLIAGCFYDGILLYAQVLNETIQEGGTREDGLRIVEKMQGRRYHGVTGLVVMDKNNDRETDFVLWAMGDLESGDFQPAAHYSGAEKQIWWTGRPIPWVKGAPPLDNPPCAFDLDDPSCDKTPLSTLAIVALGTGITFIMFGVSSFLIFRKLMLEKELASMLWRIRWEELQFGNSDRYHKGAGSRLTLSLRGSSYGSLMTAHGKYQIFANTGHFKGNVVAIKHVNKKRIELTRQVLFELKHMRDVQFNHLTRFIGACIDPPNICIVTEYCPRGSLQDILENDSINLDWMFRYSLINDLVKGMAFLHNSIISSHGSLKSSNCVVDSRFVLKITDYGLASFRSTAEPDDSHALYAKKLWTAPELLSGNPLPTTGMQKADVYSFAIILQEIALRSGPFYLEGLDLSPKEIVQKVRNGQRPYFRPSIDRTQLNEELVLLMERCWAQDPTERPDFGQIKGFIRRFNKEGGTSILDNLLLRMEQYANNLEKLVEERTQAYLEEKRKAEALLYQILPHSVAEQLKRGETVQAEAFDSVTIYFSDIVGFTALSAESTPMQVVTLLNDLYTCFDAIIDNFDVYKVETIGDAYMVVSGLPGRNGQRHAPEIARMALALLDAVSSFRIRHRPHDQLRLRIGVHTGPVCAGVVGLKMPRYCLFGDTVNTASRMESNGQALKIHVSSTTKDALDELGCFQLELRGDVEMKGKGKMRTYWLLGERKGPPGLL
Method: as §1

| binding to human NPR-C [1] | activation of cells expressing rat NPR-B (cGMP) [3] | Substance | activation of cells expressing rat NPR-A (cGMP) [2] |
| --- | --- | --- | --- |
| exhibited binding to human NPR-C |  | ASBNP.1: ASBNP.1 polypeptide that is 42 amino acid residues in length (SEQ ID NO:1) (SPKMVQGSGCFGRKMDRISSSSGLGCKGKHPLPPRPPSPIPV) | did not exhibit any activity |
|  | exhibited little, if any, activity | ASBNP.2: ASBNP.2 polypeptide, 60 amino acid residues in length with an alanine at position 43 (SEQ ID NO:3) (SPKMVQGSGCFGRKMDRISSSSGLGCKGKHPLPPRPPSPIPVADTVRVTLGFVVSGNHTL) |  |
| exhibited binding to human NPR-C | exhibited little, if any, activity | BNP: human BNP, natriuretic polypeptide of myocardial cell origin; main form is a 32 amino acid polypeptide with a ring structure | activated cells expressing rat NPR-A at concentrations in the mM range |
|  | activated cells expressing rat NPR-B | C-type natriuretic peptide [CNP] |  |
